Legend:
[1] = target: sACE2_(2).v2.4-IgG1 (human) (UniProt Q9BYF1); experiment: BLI
[2] = target: Wild type sACE2_(2)-IgG1 (human) (UniProt Q9BYF1); experiment: BLI

Row | Substance | Kd [1] [nM] | koff [1] [s⁻¹] | Kd [2] [nM] | koff [2] [s⁻¹]
1 | LYRa11 RBD-8h (domain or fragment) | 1.8 | 0.0025 | 91 | 0.079
2 | Rs4084 RBD-8h (domain or fragment) | 3.1 | 0.0015 | 85 | 0.025
3 | Rs4231 RBD-8h (domain or fragment) | 3.5 | 0.0016 | 69 | 0.022
4 | Rs7327 RBD-8h (domain or fragment) | 1.9 | 0.0018 | 63 | 0.04
5 | RsSHC014 RBD-8h (domain or fragment) |  | 0.002 |  | 
